This passage reports drop of the CLP/Fn intensity ratio from low to high Fn fibre strain results from paper PMC4539566.

This experiment addresses fibronectin (Fn) isolated from human plasma, as manually pulled single Fn fibres (human) (UniProt P02751). As to the kind of experiment: fluorescence microscopy of a labelled peptide on single Fn fibres (fibre stretch assay); Fn fibres (10% Fn-Alexa647) held across PDMS trenches in a uniaxial strain device, relaxed or stretched (40%, 140%, 380% absolute strain); blocked with 4% BSA 30 min; incubated with CLP-Alexa488 30 min, rinsed and imaged in PBS; CLP-Alexa488/Fn-Alexa647 intensity ratio normalised to the 140% strain point.
UniProt P02751, sequence (P02751 32-2477): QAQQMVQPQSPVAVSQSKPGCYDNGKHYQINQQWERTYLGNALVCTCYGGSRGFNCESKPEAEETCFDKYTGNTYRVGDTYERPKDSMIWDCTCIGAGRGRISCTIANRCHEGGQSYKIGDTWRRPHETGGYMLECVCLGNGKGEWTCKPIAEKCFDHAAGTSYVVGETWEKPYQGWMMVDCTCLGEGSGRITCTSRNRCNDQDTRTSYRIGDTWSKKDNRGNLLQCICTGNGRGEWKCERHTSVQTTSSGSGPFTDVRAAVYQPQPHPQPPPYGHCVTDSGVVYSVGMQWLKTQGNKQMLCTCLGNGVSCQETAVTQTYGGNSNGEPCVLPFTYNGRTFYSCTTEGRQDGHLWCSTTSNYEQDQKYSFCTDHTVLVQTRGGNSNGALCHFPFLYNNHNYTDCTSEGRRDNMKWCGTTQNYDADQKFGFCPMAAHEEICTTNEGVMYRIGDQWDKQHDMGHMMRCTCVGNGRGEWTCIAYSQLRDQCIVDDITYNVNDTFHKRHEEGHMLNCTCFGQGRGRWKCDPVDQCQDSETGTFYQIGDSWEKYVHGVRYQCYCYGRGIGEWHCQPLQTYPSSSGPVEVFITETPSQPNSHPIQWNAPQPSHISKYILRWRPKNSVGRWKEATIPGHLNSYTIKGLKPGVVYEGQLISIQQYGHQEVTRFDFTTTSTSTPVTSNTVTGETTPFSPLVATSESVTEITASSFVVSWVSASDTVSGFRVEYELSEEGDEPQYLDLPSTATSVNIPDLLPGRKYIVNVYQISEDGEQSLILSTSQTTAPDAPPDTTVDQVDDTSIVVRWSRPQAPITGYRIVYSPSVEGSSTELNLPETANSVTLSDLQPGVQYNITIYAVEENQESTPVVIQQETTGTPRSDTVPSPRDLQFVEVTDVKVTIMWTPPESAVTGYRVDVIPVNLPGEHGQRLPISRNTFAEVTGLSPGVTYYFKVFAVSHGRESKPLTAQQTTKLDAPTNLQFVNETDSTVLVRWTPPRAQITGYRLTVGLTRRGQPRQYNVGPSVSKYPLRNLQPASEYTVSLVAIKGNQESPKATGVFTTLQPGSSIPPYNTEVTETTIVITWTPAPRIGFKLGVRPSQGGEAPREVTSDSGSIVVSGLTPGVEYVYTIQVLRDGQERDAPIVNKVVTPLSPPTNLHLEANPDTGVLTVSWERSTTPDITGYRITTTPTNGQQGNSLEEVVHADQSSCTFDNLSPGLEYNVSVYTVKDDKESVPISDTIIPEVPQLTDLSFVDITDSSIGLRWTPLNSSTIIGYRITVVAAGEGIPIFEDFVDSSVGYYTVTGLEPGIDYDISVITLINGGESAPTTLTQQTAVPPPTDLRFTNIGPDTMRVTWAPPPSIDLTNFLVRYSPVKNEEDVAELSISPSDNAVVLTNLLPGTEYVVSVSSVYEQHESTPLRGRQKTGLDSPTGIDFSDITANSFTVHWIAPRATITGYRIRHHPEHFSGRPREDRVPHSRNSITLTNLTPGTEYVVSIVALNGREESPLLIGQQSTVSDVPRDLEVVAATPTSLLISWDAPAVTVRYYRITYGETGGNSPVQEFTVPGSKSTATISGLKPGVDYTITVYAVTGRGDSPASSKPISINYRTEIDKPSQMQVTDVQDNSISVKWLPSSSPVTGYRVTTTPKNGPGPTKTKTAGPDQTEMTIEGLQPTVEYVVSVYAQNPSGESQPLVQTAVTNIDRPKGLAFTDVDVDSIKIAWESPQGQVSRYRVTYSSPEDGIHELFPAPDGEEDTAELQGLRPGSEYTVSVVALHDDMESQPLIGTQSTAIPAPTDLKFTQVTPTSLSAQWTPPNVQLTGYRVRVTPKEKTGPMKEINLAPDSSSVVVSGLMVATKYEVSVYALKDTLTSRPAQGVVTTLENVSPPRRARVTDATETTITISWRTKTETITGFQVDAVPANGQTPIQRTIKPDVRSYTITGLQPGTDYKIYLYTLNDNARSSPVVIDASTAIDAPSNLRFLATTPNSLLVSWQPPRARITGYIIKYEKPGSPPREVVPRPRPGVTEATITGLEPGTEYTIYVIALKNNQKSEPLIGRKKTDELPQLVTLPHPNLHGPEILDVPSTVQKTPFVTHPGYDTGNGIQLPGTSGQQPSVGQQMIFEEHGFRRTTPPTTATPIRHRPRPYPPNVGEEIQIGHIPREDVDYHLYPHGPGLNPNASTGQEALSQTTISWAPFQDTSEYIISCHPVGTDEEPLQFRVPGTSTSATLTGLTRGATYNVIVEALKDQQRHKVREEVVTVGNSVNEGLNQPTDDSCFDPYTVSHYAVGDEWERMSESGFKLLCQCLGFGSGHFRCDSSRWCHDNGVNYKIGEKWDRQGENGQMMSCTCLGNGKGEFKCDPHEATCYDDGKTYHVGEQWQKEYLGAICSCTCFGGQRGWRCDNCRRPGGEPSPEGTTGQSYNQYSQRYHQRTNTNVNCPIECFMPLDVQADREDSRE

Take “synthetic collagen peptide (CLP) derived from the Fn-binding region of the α1 chain of type I collagen (residues Q778-G799), with a terminal cysteine”: the drop of the CLP/Fn intensity ratio from low to high Fn fibre strain amounted to 52%.
